Substrate in this data set: CCn1c(=NN=c2sc3cc(S(=O)(=O)O)ccc3n2CC)sc2cc(S(=O)(=O)O)ccc21
Kind of data set: purified protein. In kind it is biochemical, Pleurotus ostreatus. To be noted: free soluble enzyme, 0.1 M sodium citrate pH 3.0, 25°C (general assay).

B1: POXC (Pleurotus ostreatus) (protein)
chain: AIGPAGNMYIVNEDVSPDGFARSAVVARSVPATDPTPATASIPGVLVQGNKGDNFQLNVVNQLSDTTMLKTTSIHWHGFFQAGSSWADGPAFVTQCPVASGDSFLYNFNVPDQAGTFWYHSHLSTQYCDGLRGPFVVYDPSDPHLSLYDIDNADTVITLEDWYHIVAPQNAAIPTPDSTLINGKGRYAGGPTSPLAIINVESNKRYRFRLVSMSCDPNFTFSIDGHSLLVIEADAVNIVPITVDSIQIFAGQRYSFVLTANQAVDNYWIRANPNLGSTGFVGGINSAILRYAGATEDDPTTTSSTSTPLLETNLVPLENPGAPGPPVPGGADININLAMAFDFTTFELTINGVPFLPPTAPVLLQILSGASTAASLLPSGSIYELEANKVVEISMPALAVGGPHPFHLHGHTFDVIRSAGSTTYNFDTPARRDVVNTGTGANDNVTIRFVTDNPGPWFLHCHIDWHLEIGLAVVFAEDVTSISAPPAAWDDLCPIYNALSDNDKGGIVPS
notes: native purified laccase isoenzyme from P. ostreatus; soluble form
In the case of B1, the Km is 30 µM and the kcat was 10300 s⁻¹.

As usually defined, the Km is the concentration of substrate that gives half-maximal velocity. As usually defined, the kcat is the number of substrate molecules converted per active site and unit of time at saturation.

These data come from paper PMC4034487, “Immobilization of a Pleurotus ostreatus Laccase Mixture on Perlite and Its Application to Dye Decolourisation” (BioMed Research International, 2014).
